The DeepSol protein solubility set

Assay: soluble on expression in E. coli; label from the status in PepcDB or PDB records

Row | Sequence | soluble on expression in E. coli
1 | MGSDKIHHHHHHVKIAIASDHAAFELKEKVKNYLLGKGIEVEDHGTYSEESVDYPDYAKKVVQSILSNEADFGILLCGTGLGMSIAANRYRGIRAALCLFPDMARLARSHNNANILVLPGRLIGAELAFWIVDTFLSTPFDGGRHERRIRKIDEV | soluble
2 | MCSYARATDANGESFIYCRTWQGQFFRFKLEDRVYDYVTTFAKSDACLATDPDDPTKIYCALNEYNKITCIDLTKNPEDSGFETDVCGIQGPGAYQDGHVSVARLNNPQQILSMHDPETGEKVIYICDANNNCVRMYNMETKLMSTVAGIGGKSGYAAGNPTVSRMNRPYGICITPENDIYVADAGNKVIMKLAFMLEHHHHHH | not soluble
3 | MAHHHHHHMGPTPYQDKPYPVQPHNLNEFQQPPDTWRKSPFMSKLMDQALPVYDDVVTGSGRLYWQEPAKVWHLFEADDTLILEEHDREEWNERPYVAVNHLYEPPIGSEERPIRVEAVGNPGDQQIVMCFGNCAPHVPQSTYYMMMKGYSKNKCPMCQQWFYIHNRPWLVMHPDWTDEPAADEGPAYTFAEIEAEFDRDFHEFAVYLNAE | not soluble
4 | ASTQGISEDLYNRLVEMATISQAAYADLCNIPSTIIKGEKIYNAQTDINGWILRDDTSKEIITVFRGTGSDTNLQLDTNYTLTPFDTLPQCNDCEVHGGYYIGWISVQDQVESLVKQQASQYPDYALTVTGHSLGASMAALTAAQLSATYDNVRLYTFGEPRSGNQAFASYMNDAFQVSSPETTQYFRVTHSNDGIPNLPPAEQGYAHGGVEYWSVDPYSAQNTFVCTGDEVQCCEAQGGQGVNDAHTTYFGMTSGACTW | soluble
5 | MAGDPMTMRVCYRCGISEEEGGPLINGLCQVCFRKENPVLLLPSEINTELCQNCGSYKKRGVWIDPQNYELESLIFEVAENALLEALEESLDKVKEFEVVPWEELENINNIPVGKAFVGFIPVDYHIQYFPAVIVYRVRVKARLHELQLEPHDEIKETTVYVRQTVCPRCQRFLAGYYEAILQVRVEDREFTKEEREAVTKLVQEKVDEIMKKDRMGFIQDTIEKEEGIDFYMGSTSAARKLANVIREHFGGEISEAYELVGLDRMTSKEVYRTSVTVRLPKFRRGDIVEDRHGRIYKVENVSGKGMRLKNLETWESQHYDWKTIKREKIDKAEHEEKKALLISQTPREAQFMDMSTYETFEVLKPGVNLEEGQLYRLVKVKGRFYIKEKEGEELEHHHHHH | not soluble
6 | MHEITLCQRALELIEQQAAKHGAKRVTGVWLKIGAFSCVETSSLAFCFDLVCRGSVAEGCKLHLEEQEAECWCETCQQYVTLLTQRVRRCPQCHGDMLQIVADDGLQIRRIEIDQE | soluble
7 | YTDYEERRLIHEVPIIVPRGTGKTTLGSAIAEVGQIIDGEWGADIQLLAYSREQAGYLFNASRAMLSNEESLLHYMREADILRSTKQGILYETTNSLMSIKTSDYESLDGTNAHYNIFDEVHTYDDDFIKVVNDGSSRKRKNWITWYISTNGTKRDKLFDKYYNIWVDILDDKIINDSVMPWIYQLDDVSEIHDPDMWQKAMPLLGITTEKETIARDIEMSKNDPAQQAELMAKTFNLPVNNYLAYFSNEECKGWSDKFDESLFVGDDERNARCVIGIDLSDVNDICSISFMVVRGEERHYLNKKFMPRHTIETLPKELRDKYTEWELSGMLHVHELDYNDQAYIFEELRQFMSDNRILPVAVGYDRYNARELIRLFNDYYGDICHDIPQTVKSLSNPLKVYKEKAKMGKIIFDDPVATWNHANVRVKIDANNNIFPNKEKAKEKIDVFASQLDAFICYENFKEDLSYYFD | not soluble
8 | MSVKKLENGQYQVDVSFGFDPITGERIRTRPVASTRKEALELEAKLRREFQEERARKSRSVSFPTLISIYLASCEIDSKPNYYQNQKYIINKHISDYFLKSDIQKITHREITDFRKHLMETGLSNKSVNNIMTSLSKIFDTAVHEEILKRNPCDNVKRLPLTRKKMKFWRPEEFKKFISLIPQDQLLFKTFYTVAFLTGLRCGEMLALQWKDIDKILLEIDVHKSCTWLDGQFVVTTPKTKNSIRRVSINKKLLKLLERWKEAQEELFNELGIRHSHDTYIFQYKDTPSRKDIFSRKIKYFCKDSDLTPIRLHDFRHSHVALLIHQGEDYITIKERLGHGSVKTTIDVYGHLYPNKQKEMADKLDDLL | not soluble
9 | GHMREMLQVERPKLILDDGKRTDGRKPDELRSIKIELGVLKNADGSAIFEMGNTKAIAAVYGPKEMHPRHLSLPDRAVLRVRYHMTPFSTDERKNPAPSRREIELSKVIREALESAVLVELFPRTAIDVFTEILQADAGSRLVSLMAASLALADAGIPMRDLIAGVAVGKADGVIILDLNETEAMWGEADMPIAMMPSLNQVTLFQLNGSMTPDEFRQAFDLAVKGINIIYNLEREALKSKYVEFKEEGV | soluble
10 | NDKYMLLVFGRNGCSYCERFKKDLKNVKELRDYIKEHFSAYYVNISYSKEHDFKVGDKNNEKEIKMSTEELAQIYAVQSTPTIVLSDKTGKTIYELPGYMPSTQFLAVLEFIGDGKYQDTKDDEDLTKKLKAYIKYKTNLSKSKSN | not soluble
11 | MVNIDKIIGINNLPLANGLGEYAKRMEAVLGKNILSLVMDKRYKDMDYAGRKIYGYYPPITNGYLLNVYLSRSILKKYYKGKFPHLLSPFFYLGSEYESKSIITIHDTYYKWEKNKMQRLSKKIVRKYRSFKNIISISEQTKNDLIADGYDADNISVIYNYIDPIFRKLESINKDEKTVLTVGDGIHKNNILVNKIVNGRYYHIHIGKEVRADENYSGISTEELVKLYNRASVLIRLSDYEGFGYPPLEALFCGTPAVVSDIAVFRELLGDSAVYVKKDEVSILDGIEYAIQNRKEMLNRFESKIKSRYTKERFISNMIKYYKDL | soluble
12 | MGSDKIHHHHHHMSPLAYSVANVNLESSHPTGALSVNLLSGRDVRRWDDFVSCCREATFFHRAGWQTVIERAFGHKTWFLYAECEGEIQGVLPLAEINSRLFGHSLSSLPFCVYGGIAADSQTVRDALDRSAQKLAQELQVDYLEYRNLKPHHADWHGKDLYVTFRKEIASEIEQNMSAIPRKQRAMVRKGIKAGLESVVDQDIERFFSAYSASVHRLGTPVFSRKYFRLLKEVFAEDCELMIIVKDNRTISAVMSFYFRDEVLPYYGGGTGEAREVAGNDFMYWELMRRACEKGCKVFDFGRSKRGSGSFDFKKNWGFEPQPLHYEYQLHQAKEVPDHNPLNPRYQIFIKAWQKLPLGLANLVGPHIVRNLG | not soluble
13 | MTVNKITYQNLQEEVYKLTLESGLNVYLIPKPSFKETVGVLTANFGSLHTKYTRNGCVEHYPAGIAHFLEHKLFELDKGQDAATQFTKYGAESNAFTTFDKTSFYFSTISHITNCLDILLDFVLTTNFTEESITKEKDIIKQEIEMYQDDPEYRLYQGVLSNLYPNSPLAFDIAGDYQSISQITLTDLQENHKDFYQLSNMNLVLVGQFSPQEIITYLQKNSHFTSYSQNIDRDSISLEPVIKNNSCHMTVTKPKLAIGYRKSNHMIHGSYLKEKIGLQLFFAMLLGWTSTINQDWYESGQIDDSFDIEIEVHPDFECVIISLDTTEPIAFSTQLRLLLKNALQSSDLTESHLKNVKRELYGDFLRSLDSIENLAMQFVTYLYDGKTMYLDLPSIVEELDLEDVITIGKDFLDNADTSDFVIFPKSS | not soluble
14 | HDYLMKGNLSRLVPAIERELREADERRRRRQAEEAMHAQFNQISTIFDSLNALVYVVDMNSYELLYLNKFGAQLFGEAWEGRTCHDVLHGGRSTPCDFCTNDKLIMDGKALPPYIWEYQNSISSRWYQCIDKAIRWTD | not soluble
15 | SLPVINGAHVISMKNYTLVSDAYGEKGVKKVYEDEYLICENLKSFNKNLHPNFNFACFCLFDGHNGKNTAMFLKRNLAQELSNSFLEMQNTYDSSLPIPDHFIKISVNNTCKRIDERIAQEYPNSRDGATCVIVLIKDEYAYIINIGDSCAYLCRYLNNSNQAIELVDIHKPWVITEKERIIKHGGTIENGRVNDIIDVTRSFGDLSLKKYGLLCTGTFKKFKINSDDNFIILGTDGFFGSVDINYVINEITNLSKKEERLVNVEKKKTVFDAKSICNIMVEHAIVDKKSQDNVTVVLIKFLHKKGNSSTTTTTTEIRLLTKPERKLSWLLPPLSNN | soluble
16 | SMTTLFSKIKEVTELAAVSGHEAPVRAYLREKLTPHVDEVVTDGLGGIFGIKHSEAVDAPRVLVASHMDEVGFMVSEIKPDGTFRVVEIGGWNPMVVSSQRFKLLTRDGHEIPVISGSVPPHLTRGKGGPTMPAIADIVFDGGFADKAEAESFGIRPGDTIVPDSSAILTANEKNIISKAWDNRYGVLMVSELAEALSGQKLGNELYLGSNVQEEVGLRGAHTSTTKFDPEVFLAVDCSPAGDVYGGQGKIGDGTLIRFYDPGHLLLPGMKDFLLTTAEEAGIKYQYYCGKGGTDAGAAHLKNGGVPSTTIGVCARYIHSHQTLYAMDDFLEAQAFLQALVKKLDRSTVDLIKHY | soluble
17 | MRVIVTEYQPAWVEQFEEEAQALKQILKENCLKVEHIGSTSVPNLAAKPIIDFLVIVEEIEKVDLLQWEFERIGYEYMGEFGLSGRRYLRKGPIKRTHHVHIYQFDNTQEILRHLAFRNYLRENPAIATTYGTLKKQLAQAHPDSIDKYMDGKDAFIKKIEKEALKKYWE | soluble
18 | KKPLSVFKGPLLHISPAEELYFGSIESGEKKTLIVLTNVTKNIVAFKVRTTAPEKYRVKPSNSSCDPGASIDIIVSPHGGLTVSAQDRFLIMAAEMEQSSGTGPAELSQFWKEVPRNKVMEHRLRCHTVESSKPNSLML | soluble
19 | MSLIHSMTAFSRIQKQFDVGDFCWEIRSVNHRYLDVSFRLPESFRFLEAELRTLLRDKIHRGKLECHLKYKDTSCDNRSMLINIGTINALLDLSSKLSASHHLANDMTVSQVLSWPGVVEASLLDMEELSQIALELFQKSIDKLCEVRAGEGRSLKAYVEDRLQALRQEVMKSKSIVVSMSAKTKDKLLTRLHELQMDVPEARVEQEIALLLAKLDVSEELDRLETHIAEVSRTLNAEKVTGRRLDFLMQELNREANTLSSKSDSAELTLCAVEMKVLIEQMREQIQNFEEGHHHHHH | soluble
20 | APTMTEFVGTAGGDTVGLVIANVDSLLHKHLGLDNTCRSIGIISARVGAPAQMMAADEAVKGTNTEVATIELPRDTKGGAGHGIFIVLKAADVSDARRAVEIALKQTDKYLGNVYLCDAGHLEVQYTARASLIFEKAFGAPSGQAFGIMHAAPAGVGMIVADTALKTADVKLITYGSPTNGVLSYTNEILITISGDSGAVLQSLTAARKAGLSILRSMGQDPVSMSKPTF | soluble
21 | MGSDKIHHHHHHMSINVLIVDDSLSACRVLSRHFLLLDVDKVEFCRDARSAIRTLSKYSDDYQIVVVDLHMPEVDGIEFLMRLSKMEFKGGIIIASGMESRIVEAASQLVEASKLRLLGALMKPVTTEQLRVCVERYRLMAFQGNGVRHKGLMSIDEIRRAINSNKIIPYYQAQVDIASGKIKGFEVLCRLQQGTRLQLITPDKFIDVAECNNALNSLTTKLLNNAIPEWALISQFESCKQCHLSINLTPKQLNQSGWHTRLMQYCEQNLLSPSRLTVEITENQVLDKQRQHSTISQLRMNRIGVAIDDFGTGYTNLSQLCTLPISELKLDRSLVHGIHKDPVSQTILKSMQAISGKLGIHLVAEGVEDIHDLNYLEQIEDISLQGYLICRPKPYSELVRWLKARERLVQA | not soluble
